Consider 1 substance from patent US20210371503A1.

In this experiment the target is prefusion stabilized SARS-CoV-2 S ectodomain (SARS-CoV-2) (UniProt P0DTC2). The experiment can be described thus: assay not stated; row Binding Affinity Spike Trimer, construct not given.

Take REGN10933 (antibody): the dissociation constant (Kd) (commonly the equilibrium constant for the complex coming apart) was found to be 3 nM.
